Laboratory results reported in patent US20090074795A1, “Methods for addressing ocular diseases through interference with the wnt signaling pathway” (priority 2007, published 2009).
“Also recorded” adds a separate entry of the source.

Tests used:
OIR rats [1] = assay: Retinal NV by fluorescein angiography in OIR rats; format: in vivo, rat; settings: 3 μl of 1 μg/μl intravitreal at P15, fluorescein angiography at P18, vs BSA
Protocol: To determine the anti-angiogenic effect of DKK1 on retinal NV, DKK1 was injected (3 μl of 1 μg/μl DKK1) into the vitreous of the OIR rats at P15. At the time, NV had partially formed in the OIR rats at P15. The rats were then maintained in normoxia for 3 days, and then the retinal NV was examined using fluorescein angiography on retinal whole mounts at P18.
According to embodiments of experimental data and as shown in FIGS. 19A-19D, the OIR model was generated by exposure of BN rats to 75% oxygen for 5 days (P7-P12). At age of P15, OIR BN rats received a single intravitreal injection of DKK1 into the right eye and the same amount of BSA into the left eye. At P18, retinal vasculature was visualized using fluorescein angiography on the whole-mounted retinas from the left eye injected with BSA (FIGS. 19A and 19B) and the right eyes injected with DKK1 (FIGS. 19C and 19D) by angiography at P18.
Fluorescein Angiography: Angiograms were performed using intracardiac injection of 10 mg/ml fluorescein isothiocyanate-conjugated high molecular weight dextran (Sigma, FD-2000S) in deeply anesthetized mice. Eyes were dissected and fixed with 4% paraformaldehyde in Hanks' balanced saline prepared immediately before use for overnight at 4° C., and retinas were flat-mounted in Fluoromount-G.

primary RCEC = assay: HIF-1 activation and VEGF expression induced by LiCl in primary RCEC; format: cell-based, bovine; settings: 50 mM LiCl plus 85 ng/ml DKK1, 24 hours
Protocol: Blockade of the wnt pathway by DKK1 down-regulates VEGF and HIF-1 expression and reduces vascular leakage in the retina of diabetic rats. To activate the wnt pathway, primary RCEC were treated with 50 mM LiCl, a specific activator of the wnt pathway, in the presence or absence of 85 ng/ml DKK1, a specific inhibitor of the wnt pathway, or BSA for 24 hours. Hypoxia was used as a positive control for HIF-1 activation. The HIF-1 nuclear translocation, a key step in its activation, was measured by immunocytochemistry. Both LiCl and hypoxia increased nuclear levels of HIF-1α, indicating an increased nuclear translocation.
According to embodiments of experimental data, RCEC were exposed to normoxia (FIG. 17A), hypoxia (1% O2) (FIG. 17B), 50 mM LiCl with BSA (FIG. 17C), or 50 mM LiCl plus 85 ng/ml DKK1 (FIG. 17D) for 24 hours. The nuclear translocation of HIF-1α was determined by immunocytochemistry with an antibody against HIF-1α. […] In FIG. 17E, the total levels of VEGF and HIF-1α were determined by western blot analysis with an antibody against HIF-1α or VEGF.

OIR rats [2] = assay: Pre-retinal NV and HIF-1α in retinal sections of OIR rats; format: in vivo, rat
Protocol: Because pre-retinal NV (vasculature growing into the vitreous space) is a characteristic change of diabetic retinopathy, the effect of DKK1 was evaluated on pre-retinal NV. DKK1 was injected into the right vitreous of the OIR rats and BSA into the left vitreous at P15. At P18, pre-retinal NV was examined in retinal sections. […] Furthermore, the nuclear translocation and expression levels of HIF-1α, a key transcription factor activating VEGF expression, were decreased in the retina of the DKK1-injected eye, compared to the eye treated with BSA.
According to embodiments of experimental data and as shown in FIGS. 20A-20C, Brown Norway (BN) rats were exposed to hyperoxia for 5 days (P7-P12). At age of P15, the rats received a single injection of 3 μg of DKK1 into the vitreous of the right eyes and BSA into the left eyes. The eyes were sectioned at P18. Representative retinal sections from normal control rats (FIG. 20A), eyes of OIR rats injected with BSA (FIG. 20B), and OIR retina injected with DKK1 (FIG. 20C) were triple stained with three antibodies: Retinal vascular EC was stained with an antibody against CD31 (Red); the retinal ischemia stress status was detected by an antibody against GFAP (Blue), and the levels and nuclear translocation of HIF-1α were determined by an antibody against HIF-1α (Green).

B1: DKK1: Purified Dickkopf-1 protein (R&D System), specific inhibitor of the wnt pathway binding LRP5/6; mouse protein in mice, human in HUVEC (protein, UniProt O54908 32-272; O54908 32-272, looked up)
Dickkopf-related protein 1 1: TLNSVLINSNAIKNLPPPLGGAGGQPGSAVSVAPGVLYEGGNKYQTLDNYQPYPCAEDEECGSDEYCSSPSRGAAGVGGVQICLACRKRRKRCMRHAMCCPGNYCKNGICMPSDHSHFPRGEIEESIIENLGNDHNAAAGDGYPRRTTLTSKIYHTKGQEGSVCLRSSDCAAGLCCARHFWSKICKPVLKEGQVCTKHKRKGSHGLEIFQRCYCGEGLACRIQKDHHQASNSSRLHTCQRH
Dickkopf-related protein 1 2: TLNSVLINSNAIKNLPPPLGGAGGQPGSAVSVAPGVLYEGGNKYQTLDNYQPYPCAEDEECGSDEYCSSPSRGAAGVGGVQICLACRKRRKRCMRHAMCCPGNYCKNGICMPSDHSHFPRGEIEESIIENLGNDHNAAAGDGYPRRTTLTSKIYHTKGQEGSVCLRSSDCAAGLCCARHFWSKICKPVLKEGQVCTKHKRKGSHGLEIFQRCYCGEGLACRIQKDHHQASNSSRLHTCQRH
modifications: mouse protein in mice, human in HUVEC
- retinal NV areas (OIR rats [1]): decreased retinal NV areas
- HIF-1 nuclear translocation induced by LiCl (primary RCEC; immunocytochemistry): inhibited the HIF-1 nuclear translocation; also recorded: blocked
- HIF-1α over-expression induced by activation of the wnt pathway (primary RCEC; western blot): blocked
- VEGF over-expression induced by activation of the wnt pathway (primary RCEC; western blot): blocked
- nuclear translocation and expression levels of HIF-1α in the retina (OIR rats [2]; 3 μg intravitreal at P15, sections at P18, vs BSA): decreased
- neovascular endothelial cells (EC) in the vitreous space (pre-retinal NV) (OIR rats [2]; 3 μg intravitreal at P15, sections at P18, vs BSA contralateral eye): significantly fewer
